Test results published in the supplement of paper PMC11246515.
± gives the standard deviation of the averaged measurements.

Assay: total protein half-life in vivo (active degradation + dilution); higher = more stable protein
[1] = E. coli NCM3722 delta-clpP delta-lon delta-hslV, growth: N-lim chemostat, doubling time 6 h
[2] = E. coli NCM3722 delta-clpP, growth: N-lim chemostat, doubling time 6 h
[3] = E. coli NCM3722 delta-hslV, growth: N-lim chemostat, doubling time 6 h
[4] = E. coli NCM3722 delta-lon, growth: N-lim chemostat, doubling time 6 h
[5] = E. coli NCM3722 delta-smpB, growth: N-lim chemostat, doubling time 6 h
[6] = wild type E. coli NCM3722, growth: C-lim chemostat, doubling time 3 h
[7] = wild type E. coli NCM3722, growth: C-lim chemostat, doubling time 6 h
[8] = wild type E. coli NCM3722, growth: C-lim chemostat, doubling time 12 h
[9] = wild type E. coli NCM3722, growth: N-lim chemostat, doubling time 6 h
[10] = wild type E. coli NCM3722, growth: P-lim chemostat, doubling time 6 h
[11] = wild type E. coli NCM3722, growth: P-lim chemostat, doubling time 12 h
[12] = wild type E. coli NCM3722, growth: N-lim chemostat, doubling time 12 h

Sequence	total protein half-life in vivo [1] [h]	total protein half-life in vivo [2] [h]	total protein half-life in vivo [3] [h]	total protein half-life in vivo [4] [h]	total protein half-life in vivo [5] [h]	total protein half-life in vivo [6] [h]	total protein half-life in vivo [7] [h]	total protein half-life in vivo [8] [h]	total protein half-life in vivo [9] [h]	total protein half-life in vivo [10] [h]	total protein half-life in vivo [11] [h]	total protein half-life in vivo [12] [h]
MADKKLDTQLVNAGRSKKYTLGAVNSVIQRASSLVFDSVEAKKHATRNRANGELFYGRRGTLTHFSLQQAMCELEGGAGCVLFPCGAAAVANSILAFIEQGDHVLMTNTAYEPSQDFCSKILSKLGVTTSWFDPLIGADIVKHLQPNTKIVFLESPGSITMEVHDVPAIVAAVRSVVPDAIIMIDNTWAAGVLFKALDFGIDVSIQAATKYLVGHSDAMIGTAVCNARCWEQLRENAYLMGQMVDADTAYITSRGLRTLGVRLRQHHESSLKVAEWLAEHPQVARVNHPALPGSKGHEFWKRDFTGSSGLFSFVLKKKLNNEELANYLDNFSLFSMAYSWGGYESLILANQPEHIAAIRPQGEIDFSGTLIRLHIGLEDVDDLIADLDAGFARIV	4.64 ± 0.42	4.43 ± 0.49	3.95 ± 0.2	6.18 ± 0.7	4.33 ± 0.2	3.36 ± 0.33	4.76 ± 1.1	9.28 ± 0.72	4.28 ± 0.085	6.1 ± 0.46	12.1 ± 1.6	
MDTPRPQLLDFQFHQNNDSFTLHFQQRLILTHSKDNPCLWIGSGIADIDMFRGNFSIKDKLQEKIALTDAIVSQSPDGWLIHFSRGSDISATLNISADDQGRLLLELQNDNLNHNRIWLRLAAQPEDHIYGCGEQFSYFDLRGKPFPLWTSEQGVGRNKQTYVTWQADCKENAGGDYYWTFFPQPTFVSTQKYYCHVDNSCYMNFDFSAPEYHELALWEDKATLRFECADTYISLLEKLTALLGRQPELPDWIYDGVTLGIQGGTEVCQKKLDTMRNAGVKVNGIWAQDWSGIRMTSFGKRVMWNWKWNSENYPQLDSRIKQWNQEGVQFLAYINPYVASDKDLCEEAAQHGYLAKDASGGDYLVEFGEFYGGVVDLTNPEAYAWFKEVIKKNMIELGCGGWMADFGEYLPTDTYLHNGVSAEIMHNAWPALWAKCNYEALEETGKLGEILFFMRAGSTGSQKYSTMMWAGDQNVDWSLDDGLASVVPAALSLAMTGHGLHHSDIGGYTTLFEMKRSKELLLRWCDFSAFTPMMRTHEGNRPGDNWQFDGDAETIAHFARMTTVFTTLKPYLKEAVALNAKSGLPVMRPLFLHYEDDAHTYTLKYQYLLGRDILVAPVHEEGRSDWTLYLPEDNWVHAWTGEAFRGGEVTVNAPIGKPPVFYRADSEWAALFASLKSI	5.5	4.66 ± 0.079	4.79 ± 0.52		4.78 ± 0.19	3.06 ± 0.37		12.6 ± 3.2	4.02	5.4 ± 0.092	10.4 ± 0.25	7.22
MIKHLVAPLVFTSLILTGCQSPQGKFTPEQVAAMQSYGFTESAGDWSLGLSDAILFAKNDYKLLPESQQQIQTMAAKLASTGLTHARMDGHTDNYGEDSYNEGLSLKRANVVADAWAMGGQIPRSNLTTQGLGKKYPIASNKTAQGRAENRRVAVVITTP	1.39					0.967			1.84	1.9	4.97	
MACGEFSLIARYFDRVRSSRLDVELGIGDDCALLNIPEKQTLAISTDTLVAGNHFLPDIDPADLAYKALAVNLSDLAAMGADPAWLTLALTLPDVDEAWLESFSDSLFDLLNYYDMQLIGGDTTRGPLSMTLGIHGFVPMGRALTRSGAKPGDWIYVTGTPGDSAAGLAILQNRLQVADAKDADYLIKRHLRPSPRILQGQALRDLANSAIDLSDGLISDLGHIVKASDCGARIDLALLPFSDALSRHVEPEQALRWALSGGEDYELCFTVPELNRGALDVALGHLGVPFTCIGQMTADIEGLCFIRDGEPVTLDWKGYDHFATP [P0AGG0]	5.68 ± 0.31	4.97 ± 0.5	5.14 ± 1.4		3.99 ± 0.23		5.41 ± 0.077	10.2 ± 1	4.17 ± 0.23	5.41 ± 0.33	12.1 ± 0.31	7.02 ± 0.95
MLKPEMIEKLNEQMNLELYSSLLYQQMSAWCSYHTFEGAAAFLRRHAQEEMTHMQRLFDYLTDTGNLPRINTVESPFAEYSSLDELFQETYKHEQLITQKINELAHAAMTNQDYPTFNFLQWYVSEQHEEEKLFKSIIDKLSLAGKSGEGLYFIDKELSTLDTQN [P0A998]	5.44 ± 1.7	3.41 ± 0.55	3.94 ± 1.3	4.12 ± 0.86	3.38 ± 1.6		5.8 ± 0.56		3.33 ± 0.25	4.92 ± 0.45	10.6 ± 0.44	4.479 ± 0.025
MNIQALLSEKVRQAMIAAGAPADCEPQVRQSAKVQFGDYQANGMMAVAKKLGMAPRQLAEQVLTHLDLNGIASKVEIAGPGFINIFLDPAFLAEHVQQALASDRLGVATPEKQTIVVDYSAPNVAKEMHVGHLRSTIIGDAAVRTLEFLGHKVIRANHVGDWGTQFGMLIAWLEKQQQENAGEMELADLEGFYRDAKKHYDEDEEFAERARNYVVKLQSGDEYFREMWRKLVDITMTQNQITYDRLNVTLTRDDVMGESLYNPMLPGIVADLKAKGLAVESEGATVVFLDEFKNKEGEPMGVIIQKKDGGYLYTTTDIACAKYRYETLHADRVLYYIDSRQHQHLMQAWAIVRKAGYVPESVPLEHHMFGMMLGKDGKPFKTRAGGTVKLADLLDEALERARRLVAEKNPDMPADELEKLANAVGIGAVKYADLSKNRTTDYIFDWDNMLAFEGNTAPYMQYAYTRVLSVFRKAEIDEEQLAAAPVIIREDREAQLAARLLQFEETLTVVAREGTPHVMCAYLYDLAGLFSGFYEHCPILSAENEEVRNSRLKLAQLTAKTLKLGLDTLGIETVERM	5.58 ± 1.2	4.719 ± 0.0071	4.73 ± 0.089	5.12 ± 0.092	4.66 ± 0.21	3.13 ± 0.036	5.89 ± 0.47	10.2 ± 0.2	4.48 ± 0.06	6.03 ± 0.33	12 ± 0.36	7.82 ± 0.086
MTSENPLLALREKISALDEKLLALLAERRELAVEVGKAKLLSHRPVRDIDRERDLLERLITLGKAHHLDAHYITRLFQLIIEDSVLTQQALLQQHLNKINPHSARIAFLGPKGSYSHLAARQYAARHFEQFIESGCAKFADIFNQVETGQADYAVVPIENTSSGAINDVYDLLQHTSLSIVGEMTLTIDHCLLVSGTTDLSTINTVYSHPQPFQQCSKFLNRYPHWKIEYTESTSAAMEKVAQAKSPHVAALGSEAGGTLYGLQVLERIEANQRQNFTRFVVLARKAINVSDQVPAKTTLLMATGQQAGALVEALLVLRNHNLIMTRLESRPIHGNPWEEMFYLDIQANLESAEMQKALKELGEITRSMKVLGCYPSENVVPVDPT [P0A9J8]	5.3 ± 1.8	4.03 ± 0.25	4.9 ± 1.2	4.67 ± 0.14	4.1437 ± 0.0033	2.62 ± 0.6	5.375 ± 0.04	11 ± 0.42	4.129 ± 0.037	5.88 ± 0.58	11.77 ± 0.076	6.55 ± 0.09
